Data on 30 sequences can be found in the nanobody polyreactivity screen of Harvey et al. (2022).

The nature of this data set: yeast display, Sf9 membrane polyspecificity reagent, FACS + sequencing; frameworks hold sequencing errors. Summed up: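 Sorting gates, low and high (top ~1%), were placed on anti-HA fluorescence to track expression and on streptavidin fluorescence to track reagent binding. A clone's polyreactivity label is taken from the gate it came out of. The reagent was 10% biotinylated, detergent-solubilized Sf9 membrane, applied for 1 hour at 4 °C to galactose-induced yeast display cells.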
For “QVQLVESGGGLVQAGGSLRLSCAASGFTFGAYAMGWYRQAPGKERELVAAITRSSTSTFYADSVKGRFTISRDNAKNTVYLQMNSLKPEDTAVYYCAARGRPRYYSYAGDYWGQGTQVTVSS”, the “polyreactivity (PSR sort gate)” value is recorded as “high polyreactivity”.

For the sequence “QVQLVESGGGLVQAGGSLRLSCAASGFTFIYYAMGWYRQAPGKERELVAAINRGGNTYYADSVKGRFTISRDNAKNTVYLQMNSLKPEDTAVYYCNARSYRRGHYYWGQGTQVTVSS”, the “polyreactivity (PSR sort gate)” value is given as “high polyreactivity”.

As to “QVQLVESGGGLVQAGGSLRLSCAASGRIFVHYAMGWYRQAPGKERDLVAAISMSGGNTYYADSVKGRFTISRDNEKNTVYLQMNSLKPEDTAVYYCARAPYYVASGHRRVLRPTYEYWGQGTQLTVSS”, the “polyreactivity (PSR sort gate)” value is reported as “low polyreactivity”.

In the case of “QVQLVESGGGLVQAGGSLRLSCAASGITLVANTMGWYRQAPGKERELVATITSSGGSTYYADSVKGRFTISRDNAMNTVYLQMISLKPEDTAVYYCAASDLRYRGNYVYLPSEYWGQGTQVNVSS”, the “polyreactivity (PSR sort gate)” value is recorded as “low polyreactivity”.

“QVQLVESGGGLVQAGGSLRLSCAASGRTFYPYAMGWYRQAPGKEREFVAAIRWRGGSTRYADSVKGRFTISRDNAKNTVYLQMNSLKPEDTAVYYCAADLRLGLNYYYWGQGTQVTVSS”: the “polyreactivity (PSR sort gate)” value is listed as “high polyreactivity”.

On to “QVQLEDSGGGLVQAGGSLRLTSPASGSIFWYYDMGWYRQAPGKERELVAAITVIGSSTNYADSVKGRFTNSRDNAKITVYLQMNRLKPEDTAVYYCAAVRPPTPSRRREDYWGQGTQVTVSS”, for which the “polyreactivity (PSR sort gate)” value is on record as “low polyreactivity”.

With “QVQLVESGGGLVQAGGSLRLSCAASGSIFYYNAMGWYRQPPGKERELVAAISWSGDSTYYADSVKGRFTISRDNAKNTVYLQMNSLKPEDTAVYYCNTELVPWTEYWYDYWGQGNQVTVSS”, the “polyreactivity (PSR sort gate)” value was “low polyreactivity”.

For “QVQLVESGGGLVQAGGSLRLSCAASGSTFATYTMGWYRQAPGTERELVAAITGSVGSTYYADSVMGRFTISRDNAKNTVYVQMNSRKPQDTAVFYCAARGYRTRRGFTYQYRYEYWGQGTQVTVSS”, the “polyreactivity (PSR sort gate)” value is on record as “high polyreactivity”.

As to “QVQLVESGGGLVQAGGSLRLSCAASGSTFGPYAMGWYRQAPGKEREMVAAISKTGGRTYYADSVKGRFTISRDNAKNTVYLQMHSLKPEDTAVYYCAADVGTAQSTYGYWGQGTQVTVSS”, the “polyreactivity (PSR sort gate)” value was “high polyreactivity”.

As for “QVQLVESGGGLVQAGGSLRLSCAASGRIFAYYAMGWYRQAPGKERELVAAITRRSGDTTYYADSVKGRFTISRDNAKNTVYLQMNSLKPEDTAVYYCAARNPSFSSQYYSWGQGTQVTVSS”, the “polyreactivity (PSR sort gate)” value is reported as “high polyreactivity”.

Take “QVQLVESGGGLVQAGGSLRLSCAASGITFFWNAMGWYRQAPGKERELVAAISSGAGTTYADSVKGRFTISRDNAKNTVYLQMNSLKPEDTAVYYCAARRYRYAYGPYNYWGQGTQVTVSS”: the “polyreactivity (PSR sort gate)” value is “low polyreactivity”.

“QVQLVESGGGIVQAGGSLRLSCAASGFIFRYYAMGWYRQAPGKERELVAAISWSGGSTYYADSVKGRFTISRDNAKNTVYLQMNSLKPEETAVYYCAAEPTGWVWYAGYGYYWGQGTQVTVSS”: the “polyreactivity (PSR sort gate)” value was “high polyreactivity”.

For “QVQLVESGGGLVQAGGSLRLSCAASGRTFGWDAMGWYRQAPGKERELVAAINNSGDITYYADSVKGRFTISRDNAKNTVYLQMNSLKPEDTAVYYCAATAGYYGYPSEYDYWGQGTQVTVSS”, the “polyreactivity (PSR sort gate)” value is “low polyreactivity”.

Regarding “QVQLVESGGRLVQAGGSLRLSCAASGRIFNNYAMGWYRQAPGKERELVAAISGGGSTNYADSVKGRFTISRDNAKNTVYLQMNSLKPEDTAVYYCASGYLKASRDLYETVPYDYWGQGTQVTVSS”, the “polyreactivity (PSR sort gate)” value is listed as “low polyreactivity”.

On to “QVQLVESGGGLVQAGGSLRLTCAASGRTLAKNAMGWYRQAPGKERELVAAISRRGGSTYYADSVKGRFTISRDNAKNTVYLQMNSLKPEDTAVYYCARASRQGYYQLSYDEFDYWGQGTQVTVSS”, for which the “polyreactivity (PSR sort gate)” value is reported as “high polyreactivity”.

Regarding “QVQLVESGGGLVQAGGSLRLSCAASGFIFNSYAMGWYRQAPGKERELVATITNGGTTNYADSVKGRFTLSRDNATITVYLQMNSLKPEDTAVYYCAAVGPSVYHEYDYWGQGTQVTVSS”, the “polyreactivity (PSR sort gate)” value was “low polyreactivity”.

For “QVQLVESGVGLVQARGSLPLSCAASGFIFNTMGWYRQAPGKERELVATISWSDGSTYYADSVKGRFTISRDNAKNTVYLQMNTLKPEDTAVYYCAATTDALVGRPRYDYWGQGTQVTVSS”, the “polyreactivity (PSR sort gate)” value was “low polyreactivity”.

For the sequence “QVQLVESGGGLVQAGGSLRISCAASGSIFLSNMGWYRQAPGNERELVAAITIGGSTDYADSVKGRFTISRDNAKNTVYLQMNSLKPEDTAVYYCNADNPYSDGADSLGNYWGQGTQVTVSS”, the “polyreactivity (PSR sort gate)” value is “low polyreactivity”.

Regarding “QVQLVESGGGLVQAGGSLRLSCAASGRTFGFYAMGWYRQAPGKERELVAAISKRGGSTYYADSVKGRFTISRDNAKNTVYLQMNSLKPEDTAVYYCAAVGYYLVKFDYWGQGTQVTVSS”, the “polyreactivity (PSR sort gate)” value is listed as “high polyreactivity”.

As to “QVQLVESGGGLVQAGGSLRLSCAASGRIFGGYGRGWYRQAPGKERELVAAITSGDGSTYAESVKGRFTISRDNAKNTVYLQMNSLKPEDTAVYYCADESFGYSIDITDHEYWGQGTQVTVSS”, the “polyreactivity (PSR sort gate)” value is reported as “high polyreactivity”.

In the case of “QVQLVESGGGLVQAGGSLRLSCAASGSIFALYTMGWYRQAPGKERELVAAISRRGGKTYYADSVKGRFTISRDNAKNTVYLQMNSLKPEDTAVYYCNADRLRSTHDYWGQGTQVTVSS”, the “polyreactivity (PSR sort gate)” value was “high polyreactivity”.

As for “QVQLVESGVGLVQAGGSLRLSCAASGITFPGYAMGWYRQAPGKERELVAVIRKSGTSTYYADSVKGRFTISRDNAKNTVYLQMNSLKPEDTAVYYCAAGGPSTLDDYWGQGTQVTVSS”, the “polyreactivity (PSR sort gate)” value was “low polyreactivity”.

“QVHLVDSGGGLVQAGGSLRLSCAASGSTFYYYVMGWYRQAPGKERELVAAISSGGHPNYADSVKGRFTISRDNAKNTVYLEMNSLKPEDTAVYYCAAKARRGTLLRYGYWGQGTQVTVSS”: the “polyreactivity (PSR sort gate)” value was “high polyreactivity”.

As to “QVQLVESGGGLVQAGGSLRLSCAASGSIFASYAMGWYRQAPGKERELVAAITRGGRTNYADSVKGRFTISRDNAKNTVYLQMNSLKPEDTAVYYCAKQYALVWRGYIYGYWGQGTQVTVSS”, the “polyreactivity (PSR sort gate)” value is given as “high polyreactivity”.

For the sequence “QVQLVESGGGLVQAGGSLRLSCAASGRIFGDNDMGWSRQAPGKDRELVAGIRWRADRTYYADSVKGRFTISRDNAKNTVYLQMNSLKPEDTAVYYCNVGSFTGHSYGFGYWGQGTQVTVSS”, the “polyreactivity (PSR sort gate)” value was “low polyreactivity”.

Take “QVQLVESGGGLVQAGGSLRLSCAASGSTFAYYAMGWYRQAPGKERELVAVISVRGGSTYYADSVKGRFTISRDNAKNTVYLQMNSLKPEDTAVYYCAADTFAGYYYWGQGTQVTVSS”: the “polyreactivity (PSR sort gate)” value is “high polyreactivity”.

For the sequence “QVQLQESGSGLVQARGSLRLSCAASGAIFPAYLMGWYRHAPGKERELVAGISYGSITYCADSVKGRFNISRDNAKNTVYLQRNSLKPEDTAVYYCAVWRPGGDEYYYWGQGTQVTVSS”, the “polyreactivity (PSR sort gate)” value is reported as “low polyreactivity”.

Regarding “QVQLVESGGGLVQAGGSLRLSCAASGFTFYTYTMGWYRQAPGKERELVAVISRSGGSTYYADSVKGRFTISRDNAKNTVYLQMNSLKPEDTAVYYCNAGYWRFIDSYDYWGQGTQVTVSS”, the “polyreactivity (PSR sort gate)” value was “high polyreactivity”.

In the case of “QVQLVESGGGLVQAGGSLRLSCAASGRLFWYNAMGWYRQAPGKERELVARITRGTRTYYADSVKGRFTISRDNAKNTVSLQMNSLKPEDTAVYYCRLQLSYTPHYDYWGQGTQVTVSS”, the “polyreactivity (PSR sort gate)” value is “high polyreactivity”.

For “QVQLVESGGGIVQAGGSLRLSCAASGFTFYLYAMGWYRQAPGKERELVAAISRSGGYTYYADSVKGRFSISRDNAQNTVYLQMNSLKPEDTAVYYCNARWRSGPRAYDYWGQGTQVTVSS”, the “polyreactivity (PSR sort gate)” value was “high polyreactivity”.
